This note sets out measurements from publication PMC1420652, “Purified Wnt5a Protein Activates or Inhibits β-Catenin–TCF Signaling Depending on Receptor Context” (PLoS Biology, 2006).

The experiment deals with T1, purified Wnt5a protein (mouse) (mouse, UniProt P22725 62-380).
T1 construct: Wnt5a, mouse; The protein needs detergent to stay in solution; also called mWnt5a
T1 sequence (looked up): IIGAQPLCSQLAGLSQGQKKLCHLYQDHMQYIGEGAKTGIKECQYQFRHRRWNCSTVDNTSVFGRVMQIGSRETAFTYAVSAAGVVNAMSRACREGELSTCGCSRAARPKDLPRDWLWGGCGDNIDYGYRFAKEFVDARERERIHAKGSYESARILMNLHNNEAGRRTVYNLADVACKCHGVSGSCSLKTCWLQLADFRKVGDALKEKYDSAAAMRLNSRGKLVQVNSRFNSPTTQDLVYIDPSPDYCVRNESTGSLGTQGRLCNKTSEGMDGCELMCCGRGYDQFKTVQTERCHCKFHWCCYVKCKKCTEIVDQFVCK
The experiment in a line: pull-down; purified CRD-IgG proteins bound to protein A-Sepharose beads (4 h, 4 °C), incubated overnight at 4 °C with purified Wnt5a protein, washed 4 times with TNT buffer (50 mM Tris-HCl, 150 mM NaCl, 1% Triton X-100), Western blot. Conditions: both partners purified. For orientation: Immunoblotting shows a protein as a band on a membrane.

B1: mRor2 NT CRD-IgG (Fc fusion)
chain: not shown
notes: signal peptide in the construct; source: 293 cells stably secreting the protein, purified from serum-free conditioned media (protein A column); not shown: immunoglobulin heavy chain domain (IgG), C-terminal, kept
B1: the binding result was “binds”.

B2: mRor2 CRD-IgG (Fc fusion)
chain: not shown
notes: source: 293 cells stably secreting the protein, purified from serum-free conditioned media (protein A column); not shown: immunoglobulin heavy chain domain (IgG), C-terminal, kept
In the case of B2, the binding result is reported as “binds”.
